Test: soluble on expression in E. coli; label from the status in PepcDB or PDB records

Sequence: MDLPQKKKFTESERAALAKKLDDDLDQFMEEMAARKSDKKEERKPFDFDDWCKEIDQHPAFMTEMPTDGKYQDTIEALQSMKYDKEDDEDKQMNAEHHKEEGNKHFKFKKYRWATDCYSNGIKENSPDRKLNAVLYFNRAAAQKHLGNLRSAIKDCSMGRKFDPTHLKGVIRGAECLLELEYAKDALNWIESSKKIFAFTKETSDTPDLTDDEKKFIDQLETLRVKSVELSLKEERDKRKSRAEERKETESKKQLLDALKERNLNLCPRVPFDRPELMDMARLTVSLPLMHSHECVKFDDDLNLVWPILLQYPEAGQTDVLTETNELTTVGELLKEVLNSPAQWDPEHKFNFENVRFFVSDEYDEYLMEVYEWNDFKSVLSMPGYQIKQGLPVIMIMTKEKAASSLEALAEDENRYVAK
- soluble on expression in E. coli: soluble

Sequence: MSLHYYLGIDCGGTFIKAAIFDQNGTLQSIARRNIPIISEKPGYAERDMDELWNLCAQVIQKTIRQSSILPQQIKAIGISAQGKGAFFLDKDNKPLGRAILSSDQRAYEIVQCWQKENILQKFYPITLQTLWMGHPVSILRWIKENEPSRYEQIHTILMSHDYLRFCLTEKLYCEETNISESNFYNMREGKYDIQLAKLFGITECIDKLPPIIKSNKIAGYVTSRAAEQSGLVEGIPVVGGLFDVVSTALCADLKDDQHLNVVLGTWSVVSGVTHYIDDNQTIPFVYGKYPEKNKFIIHEASPTSAGNLEWFVNQFNLPNYDDINHEIAKLKPASSSVLFAPFLYGSNAKLGMQAGFYGIQSHHTQIHLLQAIYEGVIFSLMSHLERMQVRFPNASTLRVTGGPAKSEVWMQMLADISGMRLEIPNIEETGCLGAALMAMQAESAVEISQILNIDRKIFLPDKNQYSKYQHKYHRYLKFIEALEGHHHHHH
- soluble on expression in E. coli: soluble

Sequence: GPGSMQRGFCRVGTVTVSQAQKRAAELINSSDGFCSNVMRTVQFTPTGVKACDGESMGFSWRANQRALNGFRSTHGGALAILADTFTQIHLGAARPAAEFRSVSFEINYLEAIPENAECTCITRIVGDGESDIHHVEYSFQDERRRKVFSRGTHVLSCTK
- soluble on expression in E. coli: soluble

Sequence: GAMALVDGFLELERSSGKLEWSAILQKMASDLGFSKILFGLLPKDSQDYENAFIVGNYPAAWREHYDRAGYARVDPTVSHCTQSVLPIFWEPSIYQTRKQHEFFEEASAAGLVYGLTMPLHGARGELGALSLSVEAENRAEANRFMESVLPTLWMLKDYALQSGAGLAFEHPVSK
- soluble on expression in E. coli: soluble

Sequence: MAERGGDGGESERFNPGELRMAQQQALRFRGPAPPPNAVMRGPPPLMRPPPPFGMMRGPPPPPRPPFGRPPFDPNMPPMPPPGGIPPPMGPPHLQRPPFMPPPMSSMPPPPGMMFPPGMPPVTAPGTPALPPTEEIWVENKTPDGKVYYYNARTRESAWTKPDGVKVIQQSELTPMLAAQAQVQAQAQAQAQAQAQAQAQAQAQAQAQAQAQAQAQAQAQAQAQAQAQAQAQAQAQAQAQAQVQAQVQAQVQAQAVGASTPTTSSPAPAVSTSTSSSTPSSTTSTTTTATSVAQTVSTPTTQDQTPSSAVSVATPTVSVSTPAPTATPVQTVPQPHPQTLPPAVPHSVPQPTTAIPAFPPVMVPPFRVPLPGMPIPLPGVLPGMAPPIVPMIHPQVAIAASPATLAGATAVSEWTEYKTADGKTYYYNNRTLESTWEKPQELKEKEKLEEKIKEPIKEPSEEPLPMETEEEDPKEEPIKEIKEEPKEEEMTEEEKAAQKAKPVATAPIPGTPWCVVWTGDERVFFYNPTTRLSMWDRPDDLIGRADVDKIIQEPPHKKGMEELKKLRHPTPTMLSIQKWQFSMSAIKEEQELMEEINEDEPVKAKKRKRDDNKDIDSEKEAAMEAEIKAARERAIVPLEARMKQFKDMLLERGVSAFSTWEKELHKIVFDPRYLLLNPKERKQVFDQYVKTRAEEERREKKNKIMQAKEDFKKMMEEAKFNPRATFSEFAAKHAKDSRFKAIEKMKDREALFNEFVAAARKKEKEDSKTRGEKIKSDFFELLSNHHLDSQSRWSKVKDKVESDPRYKAVDSSSMREDLFKQYIEKIAKNLDSEKEKELERQARIEASLREREREVQKARSEQTKEIDREREQHKREEAIQNFKALLSDMVRSSDVSWSDTRRTLRKDHRWESGSLLEREEKEKLFNEHIEALTKKKREHFRQLLDETSAITLTSTWKEVKKIIKEDPRCIKFSSSDRKKQREFEEYIRDKYITAKADFRTLLKETKFITYRSKKLIQESDQHLKDVEKILQNDKRYLVLDCVPEERRKLIVAYVDDLDRRGPPPPPTASEPTRRSTK
- soluble on expression in E. coli: soluble

Sequence: GGDGNITTENIPVSEYDCLELEGGGMVVNYTQSDAPEGLEIKTDRNIFEKYEFNVENHKLKIRPKKEFRKHTNFRPTEFMVTANSRNLKKLAAAGSTHVNINSPLQAEEFEAGLAGSGIIQFHDTASFTNLKIEIAGSGDFVGHKVYCEELNGDMAGSNTIVLGGTVGIAEFSIAGSGTVRAFDCTMDELECKIAGSGDIEAFVVNKIKAEIAGSGSVKYKGDPQDIQKKVMGSGKIEKVE
- soluble on expression in E. coli: soluble

Sequence: MKISEIENTFKEKLSVSLKKQEDTIRRQSLAENQGKLEVMENMNRVLSEAIESLQSQHSKDTEIIKAGLRTKGDRVTYVDNLRVEKKALEETVSQLRSENDKLKKIIRGESTNKPVLRSRTTKP
- soluble on expression in E. coli: not soluble

Sequence: MITQRQNAILNLIVEMFTRTHEPVCSKALQDSIDSSSATIRNDMAKLEKMGYLEKAHISSGRMPSRAGFQYFVANSLNLDTIDEQDVYQVVKAFDFEAFKLEDILDAAAKLLAEMTGCTAVIQDVEPTKQRLTGFEIVQLSNHDALAVLTLDESKPVTVQFAIPKNFLSSDLEIFHKLVQGRFLGNTVLDIHYRLRTETPQIVQKYFKITDNVLDLFDYIFSHLFKELIFIEGKVASLAYADLKTYQFLDNPQHVALALRSAISDDEVTKISVAESTEEALENVTVMSHKFLIPYRGTALMHVIGPIEMDYRRMVSLVNVISRVLVMKLTDYYRYLNSNHYEVFLSRNVLKNIERGECLD
- soluble on expression in E. coli: not soluble

Sequence: MGSDKIHHHHHHMNSSHGTSSSGASAGAHGALPLEAQKLNGWGRTAPTTAEVLTTPDLDIIVDAVRQVAEQNDSKPDYLKRGVIARGMGRSYGDPAQNAGGLVIDMQPLNKIHSIDPDSAIVDVDGGVTLDQLMKAALPYGLWVPVLPGTRQVTIGGAIGPDIHGKNHHSAGSFGDHVVSMELLVADGRILHLEPEGTAEDPQGDLFWATVGGMGLTGIIVRARIRMTKTETAYFIADTDRTNNLEETVAFHSDGSEHNYTYSSAWFDVISPEPKLGRSTISRGSLATLAQLEELAPKLAKDPLKFNAPQLMKVPDIFPSWTLNKLTLSAVGVAYYAMGAPAKNQVKNLTQFYQPLDLIGEWNRGYGSKGFLQYQFVVPTEAVEPFKDIIRDMQKSGHYSALNVFKLFGPGNRAPLSYPMPGWNVCVDFPIRPGLGAFLDDLDKRVMEFGGRLYLAKESRTSAENFHAMYPGMEGWLKTRNEIDPTGVFASDMSRRLELS
- soluble on expression in E. coli: not soluble

Sequence: MSDMYDKINELYDRRREIELGGGDEKIEQQHAKGKLTARERIDLLLDEGTFVELNPFIEHRCTDFGLGEKKGPGDGVVTGYGKINGRTVFVFSQDFTVFGGALGEMHAKKITNIMDLAAKTGAPVIGLNDSGGARIQEGVLSLDGYGHIFYRNAIYSGVIPQISVIMGPCAGGAVYSPAITDFVFMVEKTSQMFITGPKVIEAVTGEKISAEDLGGARVHNTISGNAHFAAANEEEALAEVRRLLGYLPSNNNEKPPFGPIPDGDDYRPDLADVVPIDAVRPYDVRHVIAQVVDDGSFMEVQKDFAKNIVIGFARIKGEVVGLVCNQPKFMAGGLDIDSSDKAARFIRFCDSFNIPIITFEDVTGFFPGVKQEHGGIIRHGAKILYAYSEATVPKITVILRKAYGGAYVALNSKSIGADVVYAWPNAEVAVMGPQGAANIIFAGEIEKSPNPEETRAQKIAEYREKFANPYVAAKYGMIDDVIDPRDTRIKLIQALEMLRNKHEERPKKKHGNIPL
- soluble on expression in E. coli: not soluble

Sequence: MKRVVVTGIGMINALGLDKESSFKAICNGESGVNKITLFDATDFPVQIAAEVKNFDPLEVVDGKEVKKIDRFIQLGIKAAREAMQDAGFSEELDKEEFGIVSASGIGGLPNIEKNSIICSERGPRKISPFFIPSALVNMLGGLISIEHGLKGPNISCVTACAAGTHAIGEAYKSIALGNAKKMLVIGAEAAICPVGIGGFASMKALSTRNEDPQHASRPFDKERDGFVMGEGAGALVFEEYEEAKKRGATIYAELIGFGESADAHHITSPTLDGPLRAMKKALNMAGNPKVDYINAHGTSTPVNDKNETAAIKELFGNNIPLISSTKGQTGHCLGAAGAIEAVVSVMVLRDGVVPPTINQLVKDDECDLDYIPNISRKVDLKVVMSNSFGFGGTNGCVVFKKVD
- soluble on expression in E. coli: soluble

Sequence: AHHHHHHGSEEKIILFVCVKNSARSQMAEAFFNYYNDDPRFKAMSAGTEPADDIDPLAKKVMEEIGISLEGQKPKLYTPEMADKAYIVITMGCLDKCPYAPPEKTWDWGLEDPYGKPIEKYREVRDEIKRRVLKLIEDLKAGKSREEIIGRKSLFAI
- soluble on expression in E. coli: soluble

Sequence: MPGFSALSGGDKRQPEVNIGVVGHVDHGKTTLVQALTGVWTMRHSEEIRRGMTIKLGYADGEVWECEGCGFPERFSPEPVCECDPQASASLRRRVSYVDAPGHEILMATMLSGAALMDGALLVVAANEPCPQPQTKEHLVALEIIGIKNIVIVQNKVDVVSRERAKESYQEILNFIKGTIAEGSPIIPVSALKRANIDAVLAAIEKFIPTPPRDLDKPPVMYISRSFDVNRPGTPPERLVGGVVGGSIIQGVFRVGDEIEISPGVAVRKPGGRVEYVRLHTTITSLRFGSIEVEEARPGGLVAIGTQLDPSVTKADNLVGNVVGKPGELPEPLTTLRIEHHLLEKVVGMKEEARVEPIRRGEMLMLSVGTAITLGVVTRAGKDEIEVQLRRPVVTWPKARVALSRRIMGRWRLIGWGLIK
- soluble on expression in E. coli: soluble

Sequence: MKIALIGITGRVGSRLADELLRRGHHVTGIARDPASVRPQPNLTARQGDAAVPEDLAPILAGHDAVISAARFVSLDAKPLLAAIRQAGVPRLLVVGGAGSLQVAPGVALIDTPEFPDAYKPEARAGVVFLDTLRREQEVEWTFLSPSALFEPGERTGEFRLGADLLLADDEGKSWISMEDYAIALVDELETPRHARRRFTVGYLEHHHHHH
- soluble on expression in E. coli: not soluble

Sequence: MTAALPDLSFHPAWHAQLELAYARAGDATRPVTRRHAGPLRVQKHLYAEGPEVCQHILVHPPGGIAGGDSLAFDVRLGERAWAQLTSPGAAKWYRAACPARQTLEIHLEPGATLEWLPQESIVFAGAQAELETRIQLRGDARLFYWDMVALGRPASGERFASGHFVAALDIRRDDRLLWHERQRIDGGDRLLDSPIGLAGHPVLATLVASGEIDTDLLQRCRALPCAGRGNLSQLPGGLLVARCLADEALHARAWLIELWRLLRPALLGREAVPPRIWSTLEHHHHHH
- soluble on expression in E. coli: not soluble

Sequence: MGSDKIHHHHHHMKRENLHQPFEISFSEFDESMLKEHDHTFFELVYILSGTGIQWINNNKFSYHGGHLFMITPGDSHSFEIHSTTKFIDIKFNDIYIHSAVFGTENIKRLEFILQHANHQPGCILRNRTDKLLVKPMIEAIIREYVNRNLYSKEIITQLINTIIIVVARNIAMFLPEQVNECSEEKSLGILQYIQTYIYQSEKIKTKAISQHFGISENYLGRYFKKHTNETMQQYILNYKLKLVENRLLHSEMRISEIVAELGFTDESHLNKLFKKYRGCSPTNFRKNNAV
- soluble on expression in E. coli: not soluble

Sequence: MNPKIVFFDIDDTLYRKYTDTLRPSVKTAVAALRGKGILTALATGRSLATIPEKVRDMMAEAGMDAVVTINGQFALLHGKTVREVPMDAGLMGRVCAHLDGLGMDYAFVGGEGIAVSALSECVCRALKHIASDFFADKDYFSSKPVYQMLVFAEENEMPL
- soluble on expression in E. coli: not soluble

Sequence: MAYPGHPGAGGGYYPGGYGGAPGGPAFPGQTQDPLYGYFAAVAGQDGQIDADELQRCLTQSGIAGGYKPFNLETCRLMVSMLDRDMSGTMGFNEFKELWAVLNGWRQHFISLDTDRSGTVDPQELQKALTTMGFRLSPQAVNSIAKRYSTNGKITFDDYIACCVKLRALTDSFRRRDTAQQGVVNFPYDDFIQCVMSV
- soluble on expression in E. coli: soluble

Reference: the DeepSol protein solubility set
